Experimental data: PMC3877283, “Development of Novel Radiogallium-Labeled Bone Imaging Agents Using Oligo-Aspartic Acid Peptides as Carriers” (PLoS ONE, 2013)
Peptide text beside a SMILES is read from it. * marks the point of attachment. DOTA = O=C(O)CN1CCN(CC(=O)O)CCN(CC(=O)*)CCN(CC(=O)O)CC1

Test: Biodistribution experiments in normal mice
Format: in vivo, ddY mice
Settings: mouse, in vivo, iv
Procedure: Experiments with animals were conducted in strict accordance with the Guidelines for the Care and Use of Laboratory Animals of Kanazawa University. The animal experimental protocols used were approved by the Committee on Animal Experimentation of Kanazawa University (Permit Number: AP-132633). Biodistribution experiments were performed after an intravenous administration of each diluted tracer solution (37 kBq/100 µL) to 6-week-old male ddY mice (27–32 g, Japan SLC, Inc., Hamamatsu, Japan). To investigate the effect of an excess amount of bisphosphonate on biodistribution, alendronate (20 mg/kg) was intravenously administered to mice 1 minute before the intravenous injection of ^67Ga-DOTA-(Asp)14 or ^67Ga-DOTA-Bn-SCN-HBP. Four to six mice each were sacrificed by decapitation at 10, 60, and 180 minutes post-injection. Tissues of interest were removed and weighed. Complete left femurs were isolated as representative bone samples, radioactivity was determined using an auto well gamma counter, and counts were corrected for background radiation and physical decay during counting.

| SMILES | accumulation of radioactivity in the femur (in words) |
| --- | --- |
| O=C(O)C[C@H](NC(=O)[C@H](CC(=O)O)NC(=O)[C@H](CC(=O)O)NC(=O)[C@H](CC(=O)O)NC(=O)[C@H](CC(=O)O)NC(=O)CN1CCN(CC(=O)O)CCN(CC(=O)O)CCN(CC(=O)O)CC1)C(=O)O [67Ga-DOTA-(Asp)5, metal not drawn] ({DOTA}-DDDDD-OH) | moderate accumulation |
| O=C(O)C[C@H](NC(=O)[C@H](CC(=O)O)NC(=O)[C@H](CC(=O)O)NC(=O)[C@H](CC(=O)O)NC(=O)[C@H](CC(=O)O)NC(=O)[C@H](CC(=O)O)NC(=O)[C@H](CC(=O)O)NC(=O)[C@H](CC(=O)O)NC(=O)CN1CCN(CC(=O)O)CCN(CC(=O)O)CCN(CC(=O)O)CC1)C(=O)O [67Ga-DOTA-(Asp)8, metal not drawn] ({DOTA}-DDDDDDDD-OH) | higher accumulation |
| O=C(O)C[C@H](NC(=O)[C@H](CC(=O)O)NC(=O)CN1CCN(CC(=O)O)CCN(CC(=O)O)CCN(CC(=O)O)CC1)C(=O)O [67Ga-DOTA-(Asp)2, metal not drawn] ({DOTA}-Asp-Asp-OH) | hardly accumulated in the femur |
